Assay results taken from the supplement of paper PMC10126150.
± gives the standard deviation of the averaged measurements.

System: ATP
Test: switch fluorescence ratio, 500 uM ATP over buffer (Cy3 cluster intensity, sum of 5 cycles each) (fold (ratio)); higher = stronger signal-on switching upon ATP binding; sequences stand for … in TCGTCGGCAGCGTCAGATGTGTATAAGAGACAGTTTTTTTTTTTTTTTTTTTTTTTTT…TC
Conditions: aptamer strand: ATP DNA aptamer (quencher-CACCTGGGGGAGTATTGCGGAGGAAGG + anchor), 100 nM annealed; ATP concentration: 500 uM
Method in brief: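 Clusters with intensities outside 100-1000 RFU were excluded. The remaining Cy3-labelled switching-strand clusters on a modified Illumina MiSeq flow-cell had been annealed to 100 nM quencher-labelled ATP aptamer and imaged in selection buffer, then after 15 min with 500 uM ATP at 22 °C, for five cycles separated by NaOH stripping and re-annealing. The fluorescence ratio, averaged per switch-domain sequence, is each cluster's summed target-cycle Cy3 intensity over its summed buffer-cycle Cy3 intensity.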
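Also: ATP exposure 15 min at 22 °C before imaging.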

TAAATTATTT
switch fluorescence ratio: 0.999 ± 0.023

TAAATTTAGG
switch fluorescence ratio: 0.989 ± 0.02

TAAATTTTGT
switch fluorescence ratio: 1.02 ± 0.039

TAACAATCGC
switch fluorescence ratio: 1.06 ± 0.038

TAACACCGGC
switch fluorescence ratio: 1.06 ± 0.025

TAACACGAAT
switch fluorescence ratio: 1.01 ± 0.0083

TAACACGGGA
switch fluorescence ratio: 1.037 ± 0.003

TAACATCTTT
switch fluorescence ratio: 1.03 ± 0.013

TAACATGAAG
switch fluorescence ratio: 1.004 ± 0.0073

TAACCCCGCT
switch fluorescence ratio: 1.42 ± 0.25

TAACCGGTGC
switch fluorescence ratio: 1.065 ± 0.01

TAACCTATCT
switch fluorescence ratio: 1.04 ± 0.033

TAACCTGGAG
switch fluorescence ratio: 1.18 ± 0.028

TAACCTTTAA
switch fluorescence ratio: 1.04 ± 0.02

TAACGATGGG
switch fluorescence ratio: 1.014 ± 0.01

TAACGCATCG
switch fluorescence ratio: 0.9887 ± 0.0012

TAACGGCGGT
switch fluorescence ratio: 0.978 ± 0.021

TAACGGGAAT
switch fluorescence ratio: 0.99 ± 0.02

TAACGGGGCG
switch fluorescence ratio: 1.01 ± 0.049

TAACGGGGGT
switch fluorescence ratio: 1.02 ± 0.062

TAACGGGGTA
switch fluorescence ratio: 1.01 ± 0.02

TAACGTTTTC
switch fluorescence ratio: 0.983 ± 0.06

TAACGTTTTT
switch fluorescence ratio: 1.1 ± 0.024

TAACTAATAA
switch fluorescence ratio: 1.01 ± 0.018

TAACTAATTT
switch fluorescence ratio: 1.03 ± 0.017

TAACTCTTTT
switch fluorescence ratio: 0.978 ± 0.044

TAACTGGCTT
switch fluorescence ratio: 1.01 ± 0.036

TAACTGTCTT
switch fluorescence ratio: 0.966 ± 0.013

TAAGAAAAAT
switch fluorescence ratio: 1.062 ± 0.0081

TAAGAAAGGG
switch fluorescence ratio: 0.9572 ± 0.0095

TAAGAAGTCG
switch fluorescence ratio: 0.9751 ± 0.0023

TAAGAGGA
switch fluorescence ratio: 0.991 ± 0.015

TAAGAGGCGG
switch fluorescence ratio: 1.01 ± 0.052

TAAGATAAAA
switch fluorescence ratio: 1.02 ± 0.017

TAAGATGATC
switch fluorescence ratio: 0.988 ± 0.048

TAAGATGTAA
switch fluorescence ratio: 1.03 ± 0.011

TAAGCAAATG
switch fluorescence ratio: 1.038 ± 0.0072

TAAGCAGGGC
switch fluorescence ratio: 1.068 ± 0.0043

TAAGCAGTTT
switch fluorescence ratio: 1.038 ± 0.0027

TAAGCGGGGT
switch fluorescence ratio: 1.012 ± 0.008

TAAGCGGTTG
switch fluorescence ratio: 0.989 ± 0.016

TAAGCTCGTG
switch fluorescence ratio: 0.97 ± 0.019

TAAGCTGGCT
switch fluorescence ratio: 1.025 ± 0.0092

TAAGCTGTGG
switch fluorescence ratio: 1.02 ± 0.028

TAAGGAGCGG
switch fluorescence ratio: 0.976 ± 0.013

TAAGGAGTTC
switch fluorescence ratio: 0.965 ± 0.021

TAAGGCGAGT
switch fluorescence ratio: 1.03 ± 0.052

TAAGGGAACC
switch fluorescence ratio: 1.01 ± 0.044

TAAGGGAATC
switch fluorescence ratio: 1.2 ± 0.31

TAAGGGAGTG
switch fluorescence ratio: 0.976 ± 0.031

TAAGGGCGCG
switch fluorescence ratio: 1.03 ± 0.035

TAAGGGCTGA
switch fluorescence ratio: 1.01 ± 0.011

TAAGGGGGAT
switch fluorescence ratio: 1.021 ± 0.0082

TAAGGGGGGC
switch fluorescence ratio: 0.98 ± 0.029

TAAGGGGTAT
switch fluorescence ratio: 0.985 ± 0.032

TAAGGGGTGG
switch fluorescence ratio: 0.969 ± 0.028

TAAGGGTGTG
switch fluorescence ratio: 1 ± 0.023

TAAGGGTTTC
switch fluorescence ratio: 1.02 ± 0.066

TAAGGTCATA
switch fluorescence ratio: 1.034 ± 0.0067

TAAGGTCCGA
switch fluorescence ratio: 1.021 ± 0.0077

TAAGGTCGGT
switch fluorescence ratio: 0.966 ± 0.018

TAAGGTGGCC
switch fluorescence ratio: 1.01 ± 0.013

TAAGGTGGCT
switch fluorescence ratio: 1.01 ± 0.043

TAAGGTGGGG
switch fluorescence ratio: 0.987 ± 0.021

TAAGGTGTGA
switch fluorescence ratio: 1.02 ± 0.038

TAAGGTTGGG
switch fluorescence ratio: 0.993 ± 0.021

TAAGGTTTGT
switch fluorescence ratio: 0.988 ± 0.021

TAAGTAGGGC
switch fluorescence ratio: 1.2 ± 0.18

TAAGTATGTC
switch fluorescence ratio: 0.995 ± 0.01

TAAGTCATGG
switch fluorescence ratio: 0.9922 ± 0.0078

TAAGTCATTG
switch fluorescence ratio: 0.985 ± 0.049

TAAGTCGGAA
switch fluorescence ratio: 0.996 ± 0.022

TAAGTGACCG
switch fluorescence ratio: 1.07 ± 0.018

TAAGTGGAC
switch fluorescence ratio: 1.039 ± 0.0089

TAAGTGGG
switch fluorescence ratio: 0.9621 ± 0.0055

TAAGTGTGTG
switch fluorescence ratio: 0.975 ± 0.021

TAAGTGTTTT
switch fluorescence ratio: 0.994 ± 0.023

TAAGTTAGGG
switch fluorescence ratio: 0.972 ± 0.029

TAAGTTCCTG
switch fluorescence ratio: 1 ± 0.026

TAAGTTCGCA
switch fluorescence ratio: 1.05 ± 0.024

TAAGTTGGGT
switch fluorescence ratio: 0.994 ± 0.042

TAAGTTTGTT
switch fluorescence ratio: 0.997 ± 0.011

TAAGTTTTTA
switch fluorescence ratio: 1.03 ± 0.023

TAATAAAGTT
switch fluorescence ratio: 1.02 ± 0.018

TAATAACATG
switch fluorescence ratio: 0.9691 ± 0.0038
